IntAct's records for PubMed 20558380

B1: Vang-like protein 2 (Homo sapiens), Q9ULK5 (parent)
chain: MDTESQYSGYSYKSGHSRSSRKHRDRRDRHRSKSRDGGRGDKSVTIQAPGEPLLDNESTRGDERDDNWGETTTVVTGTSEHSISHDDLTRIAKDMEDSVPLDCSRHLGVAAGATLALLSFLTPLAFLLLPPLLWREELEPCGTACEGLFISVAFKLLILLLGSWALFFRRPKASLPRVFVLRALLMVLVFLLVVSYWLFYGVRILDARERSYQGVVQFAVSLVDALLFVHYLAVVLLELRQLQPQFTLKVVRSTDGASRFYNVGHLSIQRVAVWILEKYYHDFPVYNPALLNLPKSVLAKKVSGFKVYSLGEENSTNNSTGQSRAVIAAAARRRDNSHNEYYYEEAEHERRVRKRRARLVVAVEEAFTHIKRLQEEEQKNPREVMDPREAAQAIFASMARAMQKYLRTTKQQPYHTMESILQHLEFCITHDMTPKAFLERYLAAGPTIQYHKERWLAKQWTLVSEEPVTNGLKDGIVFLLKRQDFSLVVSTKKVPFFKLSEEFVDPKSHKFVMRLQSETSV
partner: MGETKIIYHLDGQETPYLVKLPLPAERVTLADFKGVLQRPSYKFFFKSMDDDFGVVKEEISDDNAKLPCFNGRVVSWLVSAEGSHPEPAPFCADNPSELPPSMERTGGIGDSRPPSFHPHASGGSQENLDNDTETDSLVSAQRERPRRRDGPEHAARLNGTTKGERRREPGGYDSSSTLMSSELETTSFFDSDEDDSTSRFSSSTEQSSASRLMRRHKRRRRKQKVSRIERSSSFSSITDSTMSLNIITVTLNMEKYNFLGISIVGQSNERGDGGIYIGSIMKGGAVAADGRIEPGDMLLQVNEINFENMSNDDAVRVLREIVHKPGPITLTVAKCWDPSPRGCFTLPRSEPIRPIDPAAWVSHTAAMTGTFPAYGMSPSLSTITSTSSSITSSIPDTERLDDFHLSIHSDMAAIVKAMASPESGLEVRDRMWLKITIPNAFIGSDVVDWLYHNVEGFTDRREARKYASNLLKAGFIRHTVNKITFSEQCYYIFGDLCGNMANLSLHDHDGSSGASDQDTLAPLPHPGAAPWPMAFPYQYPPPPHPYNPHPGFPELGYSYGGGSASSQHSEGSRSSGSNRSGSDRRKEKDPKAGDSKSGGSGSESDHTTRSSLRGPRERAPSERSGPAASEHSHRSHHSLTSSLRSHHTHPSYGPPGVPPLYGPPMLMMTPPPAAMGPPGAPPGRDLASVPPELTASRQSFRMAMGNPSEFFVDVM
B2: Vang-like protein 2 (Homo sapiens), Q9ULK5 (parent)
chain: B1 chain
partner: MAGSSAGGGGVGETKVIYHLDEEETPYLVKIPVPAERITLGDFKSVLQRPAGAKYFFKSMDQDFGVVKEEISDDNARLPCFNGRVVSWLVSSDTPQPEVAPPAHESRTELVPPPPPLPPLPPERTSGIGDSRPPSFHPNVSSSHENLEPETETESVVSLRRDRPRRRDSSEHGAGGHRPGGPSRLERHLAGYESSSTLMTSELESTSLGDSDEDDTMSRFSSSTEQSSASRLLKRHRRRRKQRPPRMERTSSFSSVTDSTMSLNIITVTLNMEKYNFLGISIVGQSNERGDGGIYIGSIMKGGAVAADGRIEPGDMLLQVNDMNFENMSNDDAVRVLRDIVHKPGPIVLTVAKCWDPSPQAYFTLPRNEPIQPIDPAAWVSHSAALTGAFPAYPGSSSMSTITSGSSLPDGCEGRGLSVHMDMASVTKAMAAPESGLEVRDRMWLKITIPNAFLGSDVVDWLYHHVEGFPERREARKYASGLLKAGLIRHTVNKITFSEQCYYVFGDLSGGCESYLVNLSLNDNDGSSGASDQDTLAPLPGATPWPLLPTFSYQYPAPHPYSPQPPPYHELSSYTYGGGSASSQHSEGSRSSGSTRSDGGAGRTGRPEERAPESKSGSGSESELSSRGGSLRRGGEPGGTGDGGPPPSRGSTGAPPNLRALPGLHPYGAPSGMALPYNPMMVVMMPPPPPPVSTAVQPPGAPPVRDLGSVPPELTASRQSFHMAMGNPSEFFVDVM

Variants of: B1
Settings: with dvl3_mouse Dvl3, Q61062

effect of a mutation on the interaction | Variant
disrupting interaction | MDTESQYSGYSYKSGHSRSSRKHRDRRDRHRSKSRDGGRGDKSVTIQAPGEPLLDNESTRGDERDDNWGETTTVVTGTSEHSISHDDLTRIAKDMEDSVPLDCSRHLGVAAGATLALLSFLTPLAFLLLPPLLWREELEPCGTACEGLFISVAFKLLILLLGSWALFFRRPKASLPRVFVLRALLMVLVFLLVVSYWLFYGVRILDARERSYQGVVQFAVSLVDALLFVHYLAVVLLELRQLQPQFTLKVVRSTDGASRFYNVGHLSIQRVAVWILEKYYHDFPVYNPALLNLPKSVLAKKVSGFKVYSLGEENSTNNSTGQSRAVIAAAARRRDNSHNEYYYEEAEHERRVRKRRARLVVAVEEAFTHIKRLQEEEQKNPREVMDPREAAQAIFASMARAMQKYLRTTKQQPYHTMESILQHLEFCITHDMTPKASLERYLAAGPTIQYHKERWLAKQWTLVSEEPVTNGLKDGIVFLLKRQDFSLVVSTKKVPFFKLSEEFVDPKSHKFVMRLQSETSV [F437S]
disrupting interaction | MDTESQYSGYSYKSGHSRSSRKHRDRRDRHRSKSRDGGRGDKSVTIQAPGEPLLDNESTRGDERDDNWGETTTVVTGTSEHSISHDDLTRIAKDMEDSVPLDCSRHLGVAAGATLALLSFLTPLAFLLLPPLLWREELEPCGTACEGLFISVAFKLLILLLGSWALFFRRPKASLPRVFVLRALLMVLVFLLVVSYWLFYGVRILDARERSYQGVVQFAVSLVDALLFVHYLAVVLLELRQLQPQFTLKVVRSTEGASRFYNVGHLSIQRVAVWILEKYYHDFPVYNPALLNLPKSVLAKKVSGFKVYSLGEENSTNNSTGQSRAVIAAAARRRDNSHNEYYYEEAEHERRVRKRRARLVVAVEEAFTHIKRLQEEEQKNPREVMDPREAAQAIFASMARAMQKYLRTTKQQPYHTMESILQHLEFCITHDMTPKAFLERYLAAGPTIQYHKERWLAKQWTLVSEEPVTNGLKDGIVFLLKRQDFSLVVSTKKVPFFKLSEEFVDPKSHKFVMRLQSETSV [D255E]
disrupting interaction | MDTESQYSGYSYKSGHSRSSRKHRDRRDRHRSKSRDGGRGDKSVTIQAPGEPLLDNESTRGDERDDNWGETTTVVTGTSEHSISHDDLTRIAKDMEDSVPLDCSRHLGVAAGATLALLSFLTPLAFLLLPPLLWREELEPCGTACEGLFISVAFKLLILLLGSWALFFRRPKASLPRVFVLRALLMVLVFLLVVSYWLFYGVRILDARERSYQGVVQFAVSLVDALLFVHYLAVVLLELRQLQPQFTLKVVRSTDGASRFYNVGHLSIQRVAVWILEKYYHDFPVYNPALLNLPKSVLAKKVSGFKVYSLGEENSTNNSTGQSRAVIAAAARRRDNSHNEYYYEEAEHERRVRKRRARLVVAVEEAFTHIKRLQEEEQKNPREVMDPREAAQAIFASMARAMQKYLRTTKQQPYHTMESILQHLEFCITHDMTPKAFLERYLAAGPTIQYHKERWLAKQWTLVNEEPVTNGLKDGIVFLLKRQDFSLVVSTKKVPFFKLSEEFVDPKSHKFVMRLQSETSV [S464N]
decreasing interaction | MDTESQYSGYSYKSGHSRSSRKHRDRRDRHRSKSRDGGRGDKSVTIQAPGEPLLDNESTRGDERDDNWGETTTVVTGTSEHSISHDDLTRIAKDMEDSVPLDCSRHLGVAAGATLALLSFLTPLAFLLLPPLLWREELEPCGTACEGLFISVAFKLLILLLGSWALFFRRPKASLPRVFVLRALLMVLVFLLVVSYWLFYGVRILDARERSYQGVVQFAVSLVDALLFVHYLAVVLLELRQLQPQFTLKVVRSTDGASRFYNVGHLSIQRVAVWILEKYYHDFPVYNPALLNLPKSVLAKKVSGFKVYSLGEENSTNNSTGQSRAVIAAAARRRDNSHNEYYYEEAEHERRVCKRRARLVVAVEEAFTHIKRLQEEEQKNPREVMDPREAAQAIFASMARAMQKYLRTTKQQPYHTMESILQHLEFCITHDMTPKAFLERYLAAGPTIQYHKERWLAKQWTLVSEEPVTNGLKDGIVFLLKRQDFSLVVSTKKVPFFKLSEEFVDPKSHKFVMRLQSETSV [R353C]

Variants of: B2
Settings: with dvl2_mouse Dvl2, Q60838

effect of a mutation on the interaction | Variant
disrupting interaction | MDTESQYSGYSYKSGHSRSSRKHRDRRDRHRSKSRDGGRGDKSVTIQAPGEPLLDNESTRGDERDDNWGETTTVVTGTSEHSISHDDLTRIAKDMEDSVPLDCSRHLGVAAGATLALLSFLTPLAFLLLPPLLWREELEPCGTACEGLFISVAFKLLILLLGSWALFFRRPKASLPRVFVLRALLMVLVFLLVVSYWLFYGVRILDARERSYQGVVQFAVSLVDALLFVHYLAVVLLELRQLQPQFTLKVVRSTDGASRFYNVGHLSIQRVAVWILEKYYHDFPVYNPALLNLPKSVLAKKVSGFKVYSLGEENSTNNSTGQSRAVIAAAARRRDNSHNEYYYEEAEHERRVRKRRARLVVAVEEAFTHIKRLQEEEQKNPREVMDPREAAQAIFASMARAMQKYLRTTKQQPYHTMESILQHLEFCITHDMTPKAFLERYLAAGPTIQYHKERWLAKQWTLVNEEPVTNGLKDGIVFLLKRQDFSLVVSTKKVPFFKLSEEFVDPKSHKFVMRLQSETSV [S464N]
disrupting interaction | MDTESQYSGYSYKSGHSRSSRKHRDRRDRHRSKSRDGGRGDKSVTIQAPGEPLLDNESTRGDERDDNWGETTTVVTGTSEHSISHDDLTRIAKDMEDSVPLDCSRHLGVAAGATLALLSFLTPLAFLLLPPLLWREELEPCGTACEGLFISVAFKLLILLLGSWALFFRRPKASLPRVFVLRALLMVLVFLLVVSYWLFYGVRILDARERSYQGVVQFAVSLVDALLFVHYLAVVLLELRQLQPQFTLKVVRSTDGASRFYNVGHLSIQRVAVWILEKYYHDFPVYNPALLNLPKSVLAKKVSGFKVYSLGEENSTNNSTGQSRAVIAAAARRRDNSHNEYYYEEAEHERRVRKRRARLVVAVEEAFTHIKRLQEEEQKNPREVMDPREAAQAIFASMARAMQKYLRTTKQQPYHTMESILQHLEFCITHDMTPKASLERYLAAGPTIQYHKERWLAKQWTLVSEEPVTNGLKDGIVFLLKRQDFSLVVSTKKVPFFKLSEEFVDPKSHKFVMRLQSETSV [F437S]
